Experimental data reported in the supplement of paper PMC10567573.

B1: BEX1 (parent)
chain: HSLRAVSTDPPHHDHHDEFCLMP

Experiments:
[1] = variants of: B1; assay: protein stability index of a GFP-peptide fusion (GPS, HEK-293T) (PSI 1-6); higher = more stable; settings: c terminus: native
[2] = variants of: B1; assay: as above; settings: c terminus: native; remark: listed apart in the source

| Variant | protein stability index [1] | protein stability index [2] |
| --- | --- | --- |
| HSPRAVSTDPPHHDHHDEFCLMP [L3P] | 2.19 |  |
| HSFRAVSTDPPHHDHHDEFCLMP [L3F] | 2.27 |  |
| HSLRAVSTDPPHHDIHDEFCLMP [H15I] | 2.19 |  |
| HSLDAVSTDPPHHDHHDEFCLMP [R4D] | 2.54 |  |
| HSLPAVSTDPPHHDHHDEFCLMP [R4P] | 2.6 |  |
| HSLYAVSTDPPHHDHHDEFCLMP [R4Y] | 2.16 |  |
| HSLHAVSTDPPHHDHHDEFCLMP [R4H] | 2.76 |  |
| HSLNAVSTDPPHHDHHDEFCLMP [R4N] | 2.64 |  |
| HSLSAVSTDPPHHDHHDEFCLMP [R4S] | 2 |  |
| HSLRAVSTDPPHHDHHDEFCTMP [L21T] | 2.47 | 3.14 |
| HSLRAVSTDPPHHDHHDEFCFMP [L21F] | 2.37 | 2.21 |
| HSLRAVSTDPPHHDHHDEFCRMP [L21R] | 1.99 | 2.33 |
| HSLRAVSTDPPHHDHHDEFCQMP [L21Q] | 2.14 | 3.42 |
| HSLRAVSTDPPHHDHHDEFCKMP [L21K] | 2.07 | 3.1 |
| HSLRAVSTDPPHHDHHDEFCWMP [L21W] | 1.92 | 2.9 |
| HSLRAVSTDPPHHDHHDEFCEMP [L21E] | 2.51 | 3.53 |
| HSLRAVSTDPPHHDHHDEFCCMP [L21C] | 2.63 | 2.9 |
| HSLRAVSTDPPHHDHHDEFCYMP [L21Y] | 2.2 | 2.39 |
| HSLRAVSTDPPHHDHHDEFCVMP [L21V] | 2.53 | 2.66 |
| HSLRAVSTDPPHHDHHDEFCIMP [L21I] | 1.68 | 2.56 |

| Variant | protein stability index [1] | protein stability index [2] |
| --- | --- | --- |
| HSLRAVSTDPPHHDHHDEFCAMP [L21A] | 1.67 | 2.83 |
| HSLRAVSTDPPHHDHHDEFCHMP [L21H] | 1.22 | 2.92 |
| HSLRAVSTDPPHHDHHDEFCSMP [L21S] | 2.31 | 3.23 |
| HSLRAVSTDPPHHDHHDEFCMMP [L21M] | 2.21 | 2.39 |
| HSLRAVSTDPPHHDHHDEFCNMP [L21N] | 2.84 | 3.18 |
| HSLRAVSTTPPHHDHHDEFCLMP [D9T] | 4.07 |  |
| HSLRAVSTIPPHHDHHDEFCLMP [D9I] | 2.76 |  |
| HSLRAVSTHPPHHDHHDEFCLMP [D9H] | 1.85 |  |
| HSLRAVSTQPPHHDHHDEFCLMP [D9Q] | 3.63 |  |
| HSLRAQSTDPPHHDHHDEFCLMP [V6Q] | 2.21 |  |
| HSLRAHSTDPPHHDHHDEFCLMP [V6H] | 1.83 |  |
| HSLRAWSTDPPHHDHHDEFCLMP [V6W] | 3.53 |  |
| HSLRAESTDPPHHDHHDEFCLMP [V6E] | 2.26 |  |
| HSLRATSTDPPHHDHHDEFCLMP [V6T] | 1.79 |  |
| HSLRAVSTDPHHHDHHDEFCLMP [P11H] | 2.62 |  |
| HSLRAVSTDPPHHDHHDEFCLQP [M22Q] | 2.83 | 2.9 |
| HSLRAVSTDPPHHDHHDEFCLKP [M22K] | 3.36 | 4 |
| HSLRAVSTDPPHHDHHDEFCLEP [M22E] | 2.4 | 3.21 |
| HSLRAVSTDPPHHDHHDEFCLVP [M22V] | 2.75 | 2.95 |
| HSLRAVSTDPPHHDHHDEFCLRP [M22R] | 2.74 | 3.24 |

| Variant | protein stability index [1] | protein stability index [2] |
| --- | --- | --- |
| HSLRAVSTDPPHHDHHDEFCLWP [M22W] | 2.48 | 2.78 |
| HSLRAVSTDPPHHDHHDEFALMP [C20A] | 2.05 | 2.8 |
| HSLRAVSTDPPHHDHHDEFELMP [C20E] | 2.34 | 2.5 |
| HSLRAVSTDPPHHDHHDEFRLMP [C20R] | 3.55 | 4.76 |
| HSLRAVSTDPPHHDHHDEFWLMP [C20W] | 3.13 | 3.48 |
| HSLRAVSTDPPHHDHHDEFSLMP [C20S] | 2.35 | 2.48 |
| HSLRAVSTDPPHHDHHDEFDLMP [C20D] | 2.69 | 3.8 |
| HSLRAVSTDPPHHDHHDEFTLMP [C20T] | 2.3 | 3.61 |
| HSLRAVSTDPPHHDHHDEFGLMP [C20G] | 3.08 | 2.09 |
| HSLRAVSTDPPHHDHHDEFLLMP [C20L] | 3.49 | 4.58 |
| HSLRAVSTDPPHHDHHDEFQLMP [C20Q] | 1.89 | 2.59 |
| HSLRAVSTDPPHHDHHDEFMLMP [C20M] | 2.16 | 3.14 |
| HSLRAVSTDPPHHDHHDEFFLMP [C20F] | 3.54 | 4.5 |
| HSLRAVSTDPPHHDHHDEFILMP [C20I] | 3.11 | 4.33 |
| HSLRAVSTDPPHHDHHDEFNLMP [C20N] | 2.21 | 3.24 |
| HSLRAVSTDPPHHDHHDEFHLMP [C20H] | 2.41 | 3.74 |
| HSLRAVSTDPPHHDHHDEFKLMP [C20K] | 4.4 | 4.78 |
| HSLRAVSTDPPHHDHHDEFVLMP [C20V] | 3.09 | 4.51 |
